Biological target: T1, PNPase (Escherichia coli, UniProt P05055)
T1 construct: made in house; host or cells: E. coli Evo21(DE3)
T1 sequence (P05055 whole entry, looked up): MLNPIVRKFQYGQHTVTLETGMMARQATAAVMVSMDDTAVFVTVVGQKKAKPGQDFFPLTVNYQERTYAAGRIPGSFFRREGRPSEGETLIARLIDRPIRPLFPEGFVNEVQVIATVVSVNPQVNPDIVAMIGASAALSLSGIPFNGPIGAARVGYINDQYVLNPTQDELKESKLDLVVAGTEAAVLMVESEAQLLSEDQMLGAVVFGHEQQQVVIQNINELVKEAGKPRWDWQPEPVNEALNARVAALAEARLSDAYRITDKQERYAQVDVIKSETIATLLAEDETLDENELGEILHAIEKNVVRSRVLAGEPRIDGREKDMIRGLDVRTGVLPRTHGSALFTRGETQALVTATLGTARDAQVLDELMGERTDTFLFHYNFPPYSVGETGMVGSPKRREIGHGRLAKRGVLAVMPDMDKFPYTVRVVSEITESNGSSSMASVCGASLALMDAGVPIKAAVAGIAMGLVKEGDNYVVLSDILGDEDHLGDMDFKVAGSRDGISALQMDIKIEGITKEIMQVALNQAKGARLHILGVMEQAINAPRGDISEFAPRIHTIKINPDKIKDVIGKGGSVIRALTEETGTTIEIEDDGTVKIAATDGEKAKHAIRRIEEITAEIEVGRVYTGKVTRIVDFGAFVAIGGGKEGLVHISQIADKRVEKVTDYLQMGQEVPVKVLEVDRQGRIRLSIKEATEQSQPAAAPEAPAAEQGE
Type: binding, E. coli
Settings: SPR, 25°C, immobilized PNPase C-His; HEPES pH 7.2; 0, 12.5, 25 and 50 nM (point mutants); contact 120 s, dissociation 120 s; duplicates

B1: RNase E 960 – 1061 wildtype: wildtype RNase E peptide 960–1061 (peptide)
chain: VVETAEVVVAEPEVVAQPAAPVVAEVAAEVETVAAVEPEVTVEHNHATAPMTRAPAPEYVPEAPRHSDWQRPTFAFEGKGAAGGHTATHHASAAPARPQPVE
modifications: left off: His6, N-terminal, cleaved | MBP, N-terminal, cleaved | intein, C-terminal, cleaved | choline-binding domain, C-terminal, cleaved
  Kd (dissociation rate constant, point mutants and wildtype): 0.026 s⁻¹
